Reference: the Immune Epitope Database (IEDB)

Key:
Assay in all cases: IEDB peptide-MHC binding, purified MHC/competitive/radioactivity; ≥ and ≤ were set here for values at or beyond the usual limits of such assays
Settings in all cases: source organism: Bordetella pertussis
HLA-B*53:01 = target: HLA-B*53:01
HLA-B*57:01 = target: HLA-B*57:01
HLA-B*35:01 = target: HLA-B*35:01
HLA-A*02:01 = target: HLA-A*02:01
HLA-B*44:03 = target: HLA-B*44:03

Sequence	IC50 (HLA-B*53:01) [µM]	IC50 (HLA-B*57:01) [µM]	also measured
CPSSLGNGV	26.4		
DAGHEHDTW		32.9	
EATEGDATL	46.1		IC50 (HLA-B*35:01): 69.9 µM
GVGLASTLW	12.6	18.8	
KAGKLSATG		45.5	
KSYTLRYLA		0.263	
LLHHILPIL			IC50 (HLA-A*02:01): 1.47 µM
LSSPSAITV		≥ 70.4	
LTWLAILAV			IC50 (HLA-A*02:01): 4.09 µM
QADRDFVWY	27.2		IC50 (HLA-B*44:03): 37.7 µM
RAGLSPATW	27.2		
RGFAQRQQL		54.3	
SVAPNALAW	0.983		IC50 (HLA-B*35:01): 56.3 µM
TSPYDGKYW		≥ 70.4	
YFEPGPTTD	69.9		
YTLRYLASY		0.00076	IC50 (HLA-B*35:01): 3.52 µM
